Data published in PMC9371678.

Molecular target: HA-PTH1R_(mTurquoise/mCitrine) (human) (UniProt Q03431)
UniProt Q03431, sequence (Q03431 27-593): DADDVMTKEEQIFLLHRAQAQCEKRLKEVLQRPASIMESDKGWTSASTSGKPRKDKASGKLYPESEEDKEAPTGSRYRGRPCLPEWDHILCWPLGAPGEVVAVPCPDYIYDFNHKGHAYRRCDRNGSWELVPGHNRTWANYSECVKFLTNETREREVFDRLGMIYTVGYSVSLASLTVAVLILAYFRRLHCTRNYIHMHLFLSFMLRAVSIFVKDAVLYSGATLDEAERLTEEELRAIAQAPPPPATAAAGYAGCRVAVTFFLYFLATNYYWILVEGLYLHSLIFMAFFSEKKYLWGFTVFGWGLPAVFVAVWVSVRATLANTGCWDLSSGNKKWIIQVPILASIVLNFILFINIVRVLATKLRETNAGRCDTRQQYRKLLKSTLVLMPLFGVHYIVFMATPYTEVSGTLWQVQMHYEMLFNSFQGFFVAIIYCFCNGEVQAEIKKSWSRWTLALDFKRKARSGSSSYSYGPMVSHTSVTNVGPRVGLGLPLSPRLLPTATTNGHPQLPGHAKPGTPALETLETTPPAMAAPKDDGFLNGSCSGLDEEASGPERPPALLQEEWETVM

pEC50 of the PTH-induced FRET change of the PTH1R (FRET) conformational biosensor (plate reader, HEK293 cells), with RAMP2 (SNAP) coexpressed (1 µg cDNA): 8.59
pEC50 of the PTH-induced FRET change of the PTH1R (FRET) conformational biosensor (plate reader, HEK293 cells), without RAMP2: 8.73
Substance: parathyroid hormone PTH (1–34) (peptide)
